{"source": "the domain aggregation screens of Martell et al. (2025)", "experiment": "soluble fraction after stress (log2 fold change); higher = more stays soluble; pooled small domains, quantitative proteomics", "conditions": "stress: 75 degC"}
{"sequence": "HMHDITPAVAETFKQLRAERGLSLSQAAQLTGVSKAMLGQIERGQSSPTVSTLWKIATGFNVAFSVFL", "values": [{"measurement": "soluble fraction (log2)", "result": -2.56}]}
{"sequence": "HMHDLGEQIIEKLRASGGISTLTDKSDPDAIYRQFKVSKKKYKQALGTLYKSRRITLAPNQIKLA", "values": [{"measurement": "soluble fraction (log2)", "result": -0.293}]}
{"sequence": "HMHDPLATLTPREHEVMSLMAEGRTNAAIAQALVIGTGAVEKNVTSIFQKLGLDDSGTDHRRVLAVLAWLQ", "values": [{"measurement": "soluble fraction (log2)", "result": -2.13}]}
{"sequence": "HMHDRRSGKVKWYSDRKGYGFIDLDGGEVFIHRSALIAFGALRLQAEDIITITVRETDRGLVVDQLFGIER", "values": [{"measurement": "soluble fraction (log2)", "result": -1.66}]}
{"sequence": "HMHEAILNQIRNEELMLYIGELSDAQQDVILLKYFHQMTFKEIAESFSIPISTVKTRHTAALKKLSTLWK", "values": [{"measurement": "soluble fraction (log2)", "result": -0.36}]}
{"sequence": "HMHESLAEVAARKLRALIVTGELAPGERVTEAGLTDLLEISRTPAREAIRILSSEGLLVVFPNRGAEVV", "values": [{"measurement": "soluble fraction (log2)", "result": -0.94}]}
{"sequence": "HMHEYSDIEHRILDAAREVFIRKGYDSATMGDIALLAGMSRTSVNYYFRNKERLFEAIFEEII", "values": [{"measurement": "soluble fraction (log2)", "result": -1.91}]}
{"sequence": "HMHFDQILAHAMDERGMNAVQLASLTGLSSGAISRYLAGDRQPTVYSIQQIAKALGVSADYLVG", "values": [{"measurement": "soluble fraction (log2)", "result": -1.19}]}
{"sequence": "HMHGEAEFLDATAVVMEKLNPGGLVKIKGEIWQAVSKDGHTIQEGEKVRVFERQGITLLVGHF", "values": [{"measurement": "soluble fraction (log2)", "result": -0.876}]}
{"sequence": "HMHGTIHSAAYGGDIEAVKKFLAAGADVNANGGGRTPLDLAIQVKNTEIADLLRKHGGKTGDELKA", "values": [{"measurement": "soluble fraction (log2)", "result": 0.547}]}
{"sequence": "HMHGYLSDPAARLIRARRKTLSIRITQEGNLEIRAPLGMPKGEIEAFLKEKAQWIETHRAKVLAEYA", "values": [{"measurement": "soluble fraction (log2)", "result": -2.84}]}
{"sequence": "HMHHDQQQITAELARIARNGLPGLTADNAIISRLDALNLLINIHDDRGADATPLRGLLPAIADELLRLT", "values": [{"measurement": "soluble fraction (log2)", "result": 0.056}]}
{"sequence": "HMHHIDTAWFRGKMREHRLTQEAVGQAIGLERSMVSKIIKGTVSFNARKASAWAQLLRVSESEILERVGI", "values": [{"measurement": "soluble fraction (log2)", "result": -2.58}]}
{"sequence": "HMHHIDYKQLRRINPVAARRAVLDYLESTGGNITKTAQVFSINRSVVYDILKKQASGDLSDRLRIP", "values": [{"measurement": "soluble fraction (log2)", "result": -2.04}]}
{"sequence": "HMHIDQVIRERRLALGLTQEELANKIGVSAPAVSKWEKRVSYPDITLLPALARILGTDVNTLLTFS", "values": [{"measurement": "soluble fraction (log2)", "result": -1.08}]}
{"sequence": "HMHIVQEGDSLYGIARQYRITVEELRSLNALETADVIVPYQKLYV", "values": [{"measurement": "soluble fraction (log2)", "result": -0.851}]}
{"sequence": "HMHKPLRILVYEELRMLIMTGQIKPGTRMMEIDLAESMGVSRTPVREAIRQLEKDNLVTIEPRRGAYVSD", "values": [{"measurement": "soluble fraction (log2)", "result": -2.71}]}
{"sequence": "HMHKYQVGETVYYTSPTFGRAAATGSYIVVKLLPSEGDDYQYRIKSSGEAFERVAKESQLDR", "values": [{"measurement": "soluble fraction (log2)", "result": -0.57}]}
{"sequence": "HMHLIPRESTYEIDGRRFVVDSVNLDFGKVSLQDITFRNATGFPIFRSESIEFMRRLVEISEAQRIAEL", "values": [{"measurement": "soluble fraction (log2)", "result": -0.0447}]}
{"sequence": "HMHLPDNAVSIISELKMTPEEVLELIGKLPHDFLFLPYSQRKKIIVDLIPNKDYKLLMSLIKKFML", "values": [{"measurement": "soluble fraction (log2)", "result": -1.62}]}
{"sequence": "HMHLTRYQYKVETEQEAVGLKELSSVHDLQIKENEATFQADSDAIDEILKTLLLYGVKKLEATPPTLED", "values": [{"measurement": "soluble fraction (log2)", "result": -0.211}]}
{"sequence": "HMHMSLTEKYKELTDLAVSAGVQNLNVREQDGVLYVDGDASGAVKQQLWDTYGKLDPDYTSGDLVLNI", "values": [{"measurement": "soluble fraction (log2)", "result": 0.279}]}
{"sequence": "HMHNSPSPVATTILRFLQPVRAFVGDTEDMRTFGPFLREDVAMVPASQAKNLIRSGHAVEINP", "values": [{"measurement": "soluble fraction (log2)", "result": -0.0107}]}
{"sequence": "HMHNSQTIIDNIKRIANEQNISLSKLAVISGLGKNTITSMTAKTNIKIETLTAIAKSLNVSIHDLTGE", "values": [{"measurement": "soluble fraction (log2)", "result": -2.64}]}
{"sequence": "HMHPDHRTATVPDAAAGRRFDAVLAELFPQFSRSKLTTWIKSGEVLLNGEVPRPRDAVVGGETVSLNVVL", "values": [{"measurement": "soluble fraction (log2)", "result": -0.554}]}
{"sequence": "HMHPMVEAYLADLDRALSGSDPREHAETMSAVREHLADAIAPDATAEQVRHALDELGPVEAIAAG", "values": [{"measurement": "soluble fraction (log2)", "result": 0.0321}]}
{"sequence": "HMHPQISVEGVLPLKEAVEFVEREIISHAYSRYRATREVARHLGIDPSTVLRKAAKYGITVEPGKN", "values": [{"measurement": "soluble fraction (log2)", "result": -1.07}]}
{"sequence": "HMHPRDREENKYLLLRGERIYEESIGEKRLYVEAALHKYEKALSSYDTGLIDEAKEEFKKFLEEIEEA", "values": [{"measurement": "soluble fraction (log2)", "result": -0.271}]}
{"sequence": "HMHPVEPDDPDQHILFQHLRGQDQVHIDALIRLSGWTADKVSSTLLFMELQGLVKQLPGMYYALE", "values": [{"measurement": "soluble fraction (log2)", "result": -0.806}]}
{"sequence": "HMHQAADFAGFITFNKDGVEQFSFGKYKNQTVVSVLEKDPGYYSWIQNADFPLYTKKILTAIRLAM", "values": [{"measurement": "soluble fraction (log2)", "result": -1.06}]}
{"sequence": "HMHQALLEQSAEHAQQVKAYELLLTAERALDEENTEAFLSAMKSLKPLAENLDAKGKALYQELLPFVTEA", "values": [{"measurement": "soluble fraction (log2)", "result": 0.485}]}
{"sequence": "HMHQAVTVTKPARLFTGPDGKGVVRSLDVGMMLYPTGEKQGMMWEVEDELGNKGWVSSTLLELS", "values": [{"measurement": "soluble fraction (log2)", "result": 0.0637}]}
{"sequence": "HMHSEEAALLHRYIDSLEEPQHTVVVMRDIGGYSFEEIASVVQLKEAHIWMILSRARRKLRELYIKTMDHH", "values": [{"measurement": "soluble fraction (log2)", "result": 0.0533}]}
{"sequence": "HMHSFFGDNIKKLRTAKKMSQEQLADIFGITKAGISYWETGRSEPNFATVQKLADFFGVTTSDLLGEA", "values": [{"measurement": "soluble fraction (log2)", "result": -0.43}]}
{"sequence": "HMHSFGLHVRNLRKKSNLTLSQLSNASGLSLSAISKIENNQISPSFINLIRLAEGLKMHIADLVTVK", "values": [{"measurement": "soluble fraction (log2)", "result": -2.2}]}
{"sequence": "HMHSGFHSAILDVDRAVKEGKTLYEALNKYPYIFDETFRSLVRAGEASGELPSILSKLALYLEEQSK", "values": [{"measurement": "soluble fraction (log2)", "result": -2.04}]}
{"sequence": "HMHSLLDDIPNVGEKRKRILLTHFQSLEEIKAATVEELERLPQINRKAAESIYTFFHSQPIR", "values": [{"measurement": "soluble fraction (log2)", "result": -0.735}]}
{"sequence": "HMHSRLEDIPGIGPRRRAMLLRHFGGLAELKAAGVEEIARVEGINMALAQRLWRALHGVPDPT", "values": [{"measurement": "soluble fraction (log2)", "result": -0.641}]}
{"sequence": "HMHSVIALTIPADYAGLRLDQALAKLLPNWSRSRLQTWIAENRVILDGQITTIKQKVWGNELIQISPQD", "values": [{"measurement": "soluble fraction (log2)", "result": -1.67}]}
{"sequence": "HMHTDQVLVMTRAVGQGEIVRNTDVGLTSVAVDRAVTTIPASQLDEIVGRHALVDLSAGQLLGSHSVGA", "values": [{"measurement": "soluble fraction (log2)", "result": 0.109}]}
{"sequence": "HMHTNNALWAIADDMRARKDDGEFDTYREGYKWAANNIVKEGIHITAIKLEKAYHKAKSEGKV", "values": [{"measurement": "soluble fraction (log2)", "result": -0.139}]}
{"sequence": "HMHVSIAENIRRIRTQHDMTQEEFGKVAAVSAMAVSQWENGRAVPRMGAVQRIADYFNISKGEVID", "values": [{"measurement": "soluble fraction (log2)", "result": -0.699}]}
{"sequence": "HMHWDIAQADAKQEVMDSSDDKEAIERIQANMFKDPKDHDQEYANKILNDMIDEIKEKGLEAMQHKFAQE", "values": [{"measurement": "soluble fraction (log2)", "result": -0.443}]}
{"sequence": "HMHYELTPDAEKQLSALGLTAELVERILEEANDRRPIPGTNRTVYSLHGYSVEFSNTNHKIVSVRKG", "values": [{"measurement": "soluble fraction (log2)", "result": -0.882}]}
{"sequence": "HMIAAPFVVKDIRVDGVQPATGEAIISSLPVKVGQTATDADVSNVVRQLFSLNRFQNVQATREGNTLVIKV", "values": [{"measurement": "soluble fraction (log2)", "result": -0.0493}]}
{"sequence": "HMIAGHLQIKNDYYYMVLSYTDSDGKRKQPWIPTGLPMKGNKKRAEKMLIETRQTYVPPVSSG", "values": [{"measurement": "soluble fraction (log2)", "result": -3.41}]}
{"sequence": "HMIAIGDDARLDDAARFFRIAEDSYAAGDYRKSKENYIEARKLYAELGDHEKVNLINSKISAIDSIT", "values": [{"measurement": "soluble fraction (log2)", "result": 0.0977}]}
{"sequence": "HMIAVIKPSATAEQKAGLVDWIRGQGIDVHISEGHDYTVLGLIGDTSKIDMDLIASLDIVDSVKRVA", "values": [{"measurement": "soluble fraction (log2)", "result": -0.338}]}
{"sequence": "HMIDAHTTLLAKRLESKGFLALTDKSSAEEIYEEFGISKKAFKKALGALYKERLVRIGEDGVVWM", "values": [{"measurement": "soluble fraction (log2)", "result": -1.67}]}
{"sequence": "HMIDDPTAVILRLVSEKQVIRRDDVVKALSVTPQKAYRLLKTMTTGGLLTRSGARRTTVYGLPDARER", "values": [{"measurement": "soluble fraction (log2)", "result": 0.223}]}
{"sequence": "HMIDEKVQAADKSIEIGNLSPLKGLVTDDEMHELEKLFEKVMALKDFEVNDVGAGRKYIEAYVSFFKFAEG", "values": [{"measurement": "soluble fraction (log2)", "result": -0.418}]}
{"sequence": "HMIDELNVGDIRFYLNRYGKEIQIEIIRIGDDGSVYARTMADNALFRVPEARLKNIGEKVPAEEVQRG", "values": [{"measurement": "soluble fraction (log2)", "result": -1.42}]}
{"sequence": "HMIDFTHEDIERLWNAIVHYVPERQKSDMAIDFIKSLEDIGVEHDEIKASAEYDPKLEEAINTVY", "values": [{"measurement": "soluble fraction (log2)", "result": -0.424}]}
{"sequence": "HMIDIDNLEKAAILLLSMGTEAAAKVMQKLSRDEVQRLISKMASLSGVSSIEAKWTLQQFFNQYREQSG", "values": [{"measurement": "soluble fraction (log2)", "result": -0.786}]}
{"sequence": "HMIDLSELINKTGSAYTNLRPSGTAVIGDDRVDVVTEGTFVEKDRPVKVVAVEGQRVVVREVE", "values": [{"measurement": "soluble fraction (log2)", "result": 0.209}]}
{"sequence": "HMIDMQIDTARFGTLGVDDDKIITFPKGLPGFEDERRFFLMDHSGSSKIKWLHSADNPGLALV", "values": [{"measurement": "soluble fraction (log2)", "result": -0.0491}]}
